From paper PMC7393678, “First Evidence of Acyl-Hydrolase/Lipase Activity From Human Probiotic Bacteria: Lactobacillus rhamnosus GG and Bifidobacterium longum NCC 2705” (Frontiers in Microbiology, 2020)

Experiments:
LrLyp [1] = test system: T1, LrLyp; assay: p-nitrophenol release at […] nm, initial rates, substrate inhibition model; type: biochemical, Lacticaseibacillus rhamnosus; details: pH 7, 37°C, 20 mM McIlvaine buffer, substrate 0.1-9 mM from DMSO/Triton X-100 stock; apparent constant from substrate inhibition fit; read-out: KMapp
T1 construct: C-terminal His6 (pET21b); E. coli; probably monomer

LrLyp [2] = test system: T1, LrLyp; assay: as above; type: biochemical, Lacticaseibacillus rhamnosus; details: substrate inhibition constant, second site; pH 7, 37°C, 20 mM McIlvaine buffer, substrate 0.1-9 mM
purified protein = substrate: CCCCCCCCCCCC(=O)Oc1ccc([N+](=O)[O-])cc1; assay: purified protein; type: biochemical, Bifidobacterium longum; details: pH 7, 37°C, 20 mM McIlvaine buffer, substrate 0.1-9 mM from DMSO/Triton X-100 stock, apparent constant

Km (LrLyp [1])	Molecule	KIapp (LrLyp [2])	Km (purified protein)	Vmax (purified protein)	kcat (purified protein)	kcat/Km (purified protein)
11.4 mM	CCCCCCCCCCCC(=O)Oc1ccc([N+](=O)[O-])cc1 [pNP-laurate]	1.57 mM	–	–	–	–
–	BlLyp (Bifidobacterium longum NCC2705) (protein, C-terminal His6 (pET21b); E. coli; monomer at pH 7) PPDNRRVSRLIRHTGKGLSGSFPFCSCRSWAKVGVFALPNPPLKGPVVMPINEALFAAMKAASYIKPNAGKSYKLQRVAEELIAKQAPANPKCRVEDAFAPMADGYAVPLRVFTPLVAYGAPLPEALEESSANGTPVASAISAILPAVLPKVLPKILIKESTSSGNADGISGNANTELPSVTPRGTILFFHGGGWTTGGINLYTQACAHMAVRLQRRVISVEYRLAPEYRFPTAVEDCYEVARQLFAGELPISGVGGSVDVDHPQSAAPTAPAGGGDISATIPAPDPDSIVLFGDSAGGNLAAAVSLMARDRGEFMPRTQMLLYPVVGNDYNPETSPFESVRTNGTDYILTAQDMADYIDMYRSSVADLTNPYFAPLTAHDLSNQPRTLVLSAEYCPLRDEDEAYARRLQLVNDNVSCYRIHDGIHGYLLNTSAVGLVATTYRIIEHFLDGTPLEPAPGTGTTANAPEGGDAWQDVLGTD	–	2.56 mM	0.05 µmol/min/mg	0.04 s⁻¹	16 M⁻¹ s⁻¹
